Measured values reported in US6558918.

How the values were obtained:
[1] = target: Cdc2-AF/CyclinB1 complex (UniProt P06493)
[2] = target: Cdc2-F15/CyclinB1 complex (UniProt P06493)
[3] = target: kinase-deficient Cdc2 mutant (K-) complexed with cyclin B1 (UniProt P06493)
[4] = target: wild-type Cdc2/cyclin B1 complex (UniProt P06493)
wild-type Cdc2/cyclin B1 complex, sequence (P06493 whole entry, looked up, one chain of several): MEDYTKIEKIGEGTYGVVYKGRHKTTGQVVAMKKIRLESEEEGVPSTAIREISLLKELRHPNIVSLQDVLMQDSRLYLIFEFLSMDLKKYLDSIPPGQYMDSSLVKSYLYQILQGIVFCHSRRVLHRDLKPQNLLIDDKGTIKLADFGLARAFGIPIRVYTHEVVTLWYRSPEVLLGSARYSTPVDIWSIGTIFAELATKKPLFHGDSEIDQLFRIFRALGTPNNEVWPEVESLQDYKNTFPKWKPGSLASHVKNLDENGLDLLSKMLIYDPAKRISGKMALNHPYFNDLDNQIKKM

full-length human Wee1 with N-terminal Glu-Glu tag, expressed in Sf9 cells, sequence (chain, as listed by the source): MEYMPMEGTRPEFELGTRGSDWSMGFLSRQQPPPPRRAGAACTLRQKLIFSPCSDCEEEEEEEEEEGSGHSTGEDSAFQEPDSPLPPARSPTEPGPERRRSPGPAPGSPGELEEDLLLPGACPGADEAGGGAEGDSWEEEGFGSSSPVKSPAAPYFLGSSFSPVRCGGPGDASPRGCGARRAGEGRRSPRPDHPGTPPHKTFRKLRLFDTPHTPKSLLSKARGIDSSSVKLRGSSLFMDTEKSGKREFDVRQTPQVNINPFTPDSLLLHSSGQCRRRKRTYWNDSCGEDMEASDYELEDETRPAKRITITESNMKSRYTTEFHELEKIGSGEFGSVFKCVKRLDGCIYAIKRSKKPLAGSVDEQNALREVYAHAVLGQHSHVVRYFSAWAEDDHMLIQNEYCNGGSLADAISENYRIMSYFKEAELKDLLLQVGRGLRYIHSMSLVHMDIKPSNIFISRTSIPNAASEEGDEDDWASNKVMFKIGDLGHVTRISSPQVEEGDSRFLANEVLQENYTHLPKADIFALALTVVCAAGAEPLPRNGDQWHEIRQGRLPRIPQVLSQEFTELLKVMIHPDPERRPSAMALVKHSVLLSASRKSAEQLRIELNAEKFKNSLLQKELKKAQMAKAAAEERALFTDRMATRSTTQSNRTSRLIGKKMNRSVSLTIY
kinase-deficient Cdc2 mutant (K-) complexed with cyclin B1, sequence (P06493 whole entry, looked up, change not shown, one chain of several): as the sequence (P06493 whole entry, looked up, one chain of several) above
Cdc2-F15/CyclinB1 complex, sequence (P06493 whole entry, looked up, one chain of several): as above
Cdc2-AF/CyclinB1 complex, sequence (P06493 whole entry, looked up, one chain of several): as above

## full-length human Wee1 with N-terminal Glu-Glu tag, expressed in Sf9 cells
[1]
  histone H1 kinase activity in mixed Sf9 lysates: Cdc2-F15/CyclinB1 and Cdc2-AF/CylinB1 complexes retained full activity in the presence of Wee1 lysates
[2]
  histone H1 kinase activity in mixed Sf9 lysates: Cdc2-F15/CyclinB1 and Cdc2-AF/CylinB1 complexes retained full activity in the presence of Wee1 lysates
[3]
  phosphoamino acid analysis of 32P-labeled Cdc2: the Tyrosine 15 residue was readily phosphorylated by full-length Wee1
[4]
  histone H1 kinase activity of Cdc2/CyclinB1 in mixed Sf9 lysates: the addition of Wee1 lysates effectively inhibited Cdc2/CyclinB1 kinase activation
